Results as given in patent US20230391845A1, “GLP-1, GIP AND GLUCAGON RECEPTOR TRIPLE AGONISTS” (priority 2020, published 2023).
*1 amine or outer side, *2 acyl side, *3 side chain or, on linkers, in order; H or OH if unused. Where a SMILES comes first, the peptide text is derived from it. Where no end group is shown, it is not given here. Side-chain parts run from the residue outwards. [ ]: non-standard residue; d: D form. The star is where a group is joined. X1 = O=C(O)CCCCCCCCCCCCCCCCCCC(=O)NCC1CCC(C(=O)*)CC1; γGlu = O=C(O)[C@H](CCC(=O)[*:2])N[*:1]; εLys = N[C@@H](CCCCN[*:1])C(=O)[*:2]; Aib = CC(C)(N)C(=O)O

Experiments:
mouse GIP receptor [1] = target: T1, mouse GIP receptor (Mus musculus, UniProt Q0P543); test: In vitro functional potency (CRE luciferase; whole cells), mouse GIPR; format: cell-based; conditions: BHK cells expressing mouse GIP receptor
T1 construct: expressed in transfected cells; host or cells: BHK cells (parent line BHKTS13) containing CRE luciferase
T1 sequence (Q0P543 19-460): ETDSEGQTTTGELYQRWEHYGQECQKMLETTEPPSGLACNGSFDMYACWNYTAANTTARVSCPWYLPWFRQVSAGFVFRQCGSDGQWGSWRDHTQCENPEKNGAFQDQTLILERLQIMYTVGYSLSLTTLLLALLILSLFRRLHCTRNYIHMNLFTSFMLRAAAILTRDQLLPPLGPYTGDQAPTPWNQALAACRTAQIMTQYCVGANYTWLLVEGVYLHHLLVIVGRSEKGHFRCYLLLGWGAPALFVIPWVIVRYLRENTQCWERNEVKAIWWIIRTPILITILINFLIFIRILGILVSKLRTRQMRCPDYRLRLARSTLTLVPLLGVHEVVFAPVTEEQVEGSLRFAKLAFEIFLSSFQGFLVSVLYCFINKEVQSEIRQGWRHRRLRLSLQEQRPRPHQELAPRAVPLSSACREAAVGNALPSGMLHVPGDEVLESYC
Procedure: (§1) The purpose of this example is to test the functional activity, or potency, of the compounds in vitro at the human and mouse GLP-1, GIP, and Gcg receptors. The in vitro functional potency is the measure of target receptor activation in a whole cell assay.
(§2) In vitro functional potency was determined by measuring the response of the target receptor in a reporter gene assay in individual cell lines. The assay was performed in stably transfected BHK cell lines that expresses one of the following G-protein coupled receptors: human GLP-1 receptor, human GIP receptor, human Gcg receptor, mouse GLP-1 receptor, mouse GIP receptor, or mouse Gcg receptor; and where each cell line contains the DNA for the cAMP response element (CRE) coupled to a promoter and the gene for firefly luciferase (CRE luciferase). When the respective receptor is activated, it results in the production of cAMP, which in turn results in expression of the luciferase protein. […] The luminescence is measured as the readout for the assay. […]
(§3) The data from the microtiter plate reader was first regressed in an Excel in order to calculate the x-axis, log scale concentrations based on the individual test compound's stock concentration and the dilutions of the assay. […] A minimum of two replicates was measured for each sample. […]

mouse GLP-1 receptor [2] = target: T2, mouse GLP-1 receptor (Mus musculus, UniProt O35659); test: In vitro functional potency (CRE luciferase; whole cells), mouse GLP-1R; format: cell-based; conditions: BHK cells expressing mouse GLP-1 receptor
T2 construct: expressed in transfected cells; host or cells: BHK cells (parent line BHKTS13) containing CRE luciferase
T2 sequence (O35659 22-463): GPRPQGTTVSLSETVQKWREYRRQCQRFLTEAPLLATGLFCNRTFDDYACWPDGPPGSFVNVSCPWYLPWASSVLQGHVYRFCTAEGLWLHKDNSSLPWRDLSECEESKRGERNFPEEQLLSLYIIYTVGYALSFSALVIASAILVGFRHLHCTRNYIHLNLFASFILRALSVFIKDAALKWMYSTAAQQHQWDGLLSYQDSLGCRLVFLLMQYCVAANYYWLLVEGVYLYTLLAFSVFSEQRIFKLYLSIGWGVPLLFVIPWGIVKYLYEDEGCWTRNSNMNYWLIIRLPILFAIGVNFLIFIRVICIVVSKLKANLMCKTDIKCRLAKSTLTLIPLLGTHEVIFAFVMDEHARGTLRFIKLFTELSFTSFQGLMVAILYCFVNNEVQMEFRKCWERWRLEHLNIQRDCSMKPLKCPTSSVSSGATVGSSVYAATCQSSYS
Procedure: as §1, §2, §3

mouse Gcg receptor [3] = target: T3, mouse Gcg receptor (Mus musculus, UniProt Q61606); test: In vitro functional potency (CRE luciferase; whole cells), mouse GcgR; format: cell-based; conditions: BHK cells expressing mouse Gcg receptor
T3 construct: expressed in transfected cells; host or cells: BHK cells (parent line BHKTS13) containing CRE luciferase
T3 sequence (Q61606 27-485): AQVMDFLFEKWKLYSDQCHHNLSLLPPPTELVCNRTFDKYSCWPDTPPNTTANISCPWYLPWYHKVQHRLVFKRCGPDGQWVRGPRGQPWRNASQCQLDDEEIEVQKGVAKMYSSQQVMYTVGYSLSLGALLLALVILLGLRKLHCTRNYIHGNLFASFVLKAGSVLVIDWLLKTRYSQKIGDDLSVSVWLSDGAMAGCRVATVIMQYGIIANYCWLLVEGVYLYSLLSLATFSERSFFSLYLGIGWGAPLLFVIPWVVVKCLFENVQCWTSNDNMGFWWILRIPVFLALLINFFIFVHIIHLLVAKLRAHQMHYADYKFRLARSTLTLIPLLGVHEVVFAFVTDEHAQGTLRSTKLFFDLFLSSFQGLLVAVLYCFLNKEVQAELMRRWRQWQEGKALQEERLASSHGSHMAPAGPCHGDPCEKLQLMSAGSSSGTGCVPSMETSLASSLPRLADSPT
Procedure: as §1, §2, §3

[4] = glucagon: depending on the route of administration; cited from earlier work
human glucagon receptor = human glucagon receptor (human, UniProt P47871 26-477); test: cell-based or functional assay
Sequence of human glucagon receptor (P47871 26-477): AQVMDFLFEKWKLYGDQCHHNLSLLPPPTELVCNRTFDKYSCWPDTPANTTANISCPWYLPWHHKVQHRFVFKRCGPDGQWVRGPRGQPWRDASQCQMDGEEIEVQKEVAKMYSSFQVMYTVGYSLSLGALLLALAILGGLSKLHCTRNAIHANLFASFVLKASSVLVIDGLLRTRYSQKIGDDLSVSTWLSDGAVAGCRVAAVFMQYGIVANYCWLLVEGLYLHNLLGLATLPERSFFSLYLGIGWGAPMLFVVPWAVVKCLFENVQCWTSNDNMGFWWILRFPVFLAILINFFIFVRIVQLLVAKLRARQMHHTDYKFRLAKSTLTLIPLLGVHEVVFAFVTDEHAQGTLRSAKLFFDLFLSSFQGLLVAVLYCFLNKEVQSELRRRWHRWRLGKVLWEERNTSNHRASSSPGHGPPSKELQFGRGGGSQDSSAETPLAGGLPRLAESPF

[5] = target: human glucagon-like peptide 1 receptor (human, UniProt P43220 24-463); test: cell-based or functional assay
[6] = target: T4, human glucose-dependent insulinotropic polypeptide receptor (human, UniProt P48546 22-466); test: cell-based or functional assay
T4 sequence (looked up): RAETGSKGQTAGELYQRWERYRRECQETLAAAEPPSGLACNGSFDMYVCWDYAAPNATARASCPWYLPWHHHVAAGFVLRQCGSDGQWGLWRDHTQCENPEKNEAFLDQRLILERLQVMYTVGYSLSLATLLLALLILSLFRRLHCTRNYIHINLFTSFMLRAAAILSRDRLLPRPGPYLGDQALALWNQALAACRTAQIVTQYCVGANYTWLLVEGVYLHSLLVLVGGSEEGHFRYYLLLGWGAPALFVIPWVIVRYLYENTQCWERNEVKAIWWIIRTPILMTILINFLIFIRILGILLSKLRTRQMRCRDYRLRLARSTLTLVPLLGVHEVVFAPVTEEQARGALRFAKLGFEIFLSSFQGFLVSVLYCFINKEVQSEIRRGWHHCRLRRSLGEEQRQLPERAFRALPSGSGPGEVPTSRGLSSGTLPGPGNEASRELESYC

mouse GLP-1 receptor [7] = target: T5, mouse GLP-1 receptor (mouse, UniProt O35659 22-463); test: cell-based or functional assay
T5 sequence (looked up): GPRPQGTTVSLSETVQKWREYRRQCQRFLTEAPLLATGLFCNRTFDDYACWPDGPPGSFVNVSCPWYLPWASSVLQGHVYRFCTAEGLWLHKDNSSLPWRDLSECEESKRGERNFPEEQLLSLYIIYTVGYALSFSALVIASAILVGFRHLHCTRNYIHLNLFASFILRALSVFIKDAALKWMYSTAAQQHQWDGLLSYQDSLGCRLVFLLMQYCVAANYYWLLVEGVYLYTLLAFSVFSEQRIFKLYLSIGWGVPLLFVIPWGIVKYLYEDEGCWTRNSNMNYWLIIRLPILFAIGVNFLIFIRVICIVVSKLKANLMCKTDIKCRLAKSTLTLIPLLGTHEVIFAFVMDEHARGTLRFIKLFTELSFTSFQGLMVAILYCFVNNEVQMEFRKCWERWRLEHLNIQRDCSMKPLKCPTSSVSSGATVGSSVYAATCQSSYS

mouse Gcg receptor [8] = target: mouse Gcg receptor (mouse, UniProt Q61606 27-485); test: cell-based or functional assay
Sequence of mouse Gcg receptor (mouse, UniProt Q61606 27-485) (Q61606 27-485): as the sequence (Q61606 27-485) above

mouse GIP receptor [9] = target: T6, mouse GIP receptor (mouse, UniProt Q0P543 19-460); test: cell-based or functional assay
T6 sequence (looked up): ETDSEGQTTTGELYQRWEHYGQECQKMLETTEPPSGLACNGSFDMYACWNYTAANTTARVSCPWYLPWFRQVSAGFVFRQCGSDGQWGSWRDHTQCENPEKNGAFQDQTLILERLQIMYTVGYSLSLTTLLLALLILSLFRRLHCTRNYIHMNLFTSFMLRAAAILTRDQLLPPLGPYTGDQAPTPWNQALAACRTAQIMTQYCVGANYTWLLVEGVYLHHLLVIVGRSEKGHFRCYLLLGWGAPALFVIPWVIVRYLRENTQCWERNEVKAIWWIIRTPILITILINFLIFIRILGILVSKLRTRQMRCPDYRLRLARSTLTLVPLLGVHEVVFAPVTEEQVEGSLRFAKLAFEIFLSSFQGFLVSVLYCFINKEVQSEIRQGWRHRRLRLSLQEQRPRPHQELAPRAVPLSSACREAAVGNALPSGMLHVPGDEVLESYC

Molecule: CC[C@H](C)[C@H](NC(=O)[C@H](CO)NC(=O)[C@H](Cc1ccc(O)cc1)NC(=O)[C@H](CC(=O)O)NC(=O)[C@H](CO)NC(=O)[C@@H](NC(=O)[C@H](Cc1ccccc1)NC(=O)[C@@H](NC(=O)CNC(=O)[C@H](Cc1c[nH]cn1)NC(=O)C(C)(C)NC(=O)[C@@H](N)Cc1c[nH]cn1)[C@@H](C)O)[C@@H](C)O)C(=O)N[C@@H](Cc1ccc(O)cc1)C(=O)N[C@@H](CC(C)C)C(=O)N[C@@H](CCC(=O)O)C(=O)N[C@@H](CCCCNC(=O)[C@@H](N)CCCCNC(=O)[C@@H](N)CCCCNC(=O)CC[C@H](NC(=O)C1CCC(CNC(=O)CCCCCCCCCCCCCCCCCCC(=O)O)CC1)C(=O)O)C(=O)N[C@@H](CCC(N)=O)C(=O)N[C@@H](C)C(=O)N[C@@H](C)C(=O)NC(C)(C)C(=O)N[C@@H](CCC(=O)O)C(=O)N[C@@H](Cc1ccccc1)C(=O)N[C@H](C(=O)N[C@@H](CCC(N)=O)C(=O)N[C@@H](Cc1c[nH]c2ccccc12)C(=O)N[C@@H](CC(C)C)C(=O)N[C@@H](CC(C)C)C(=O)N[C@@H](CCC(=O)O)C(=O)NCC(=O)NCC(=O)N1CCC[C@H]1C(=O)N[C@@H](CO)C(=O)N[C@@H](CO)C(=O)NCC(=O)N[C@@H](C)C(=O)N1CCC[C@H]1C(=O)N1CCC[C@H]1C(=O)N1CCC[C@H]1C(=O)N[C@@H](CO)C(N)=O)C(C)C (stereo partly shown) [Compound No. 21] (H-H[Aib]HGTFTSDYSIYLEK([εLys-εLys-γGlu-X1])QAA[Aib]EFVQWLLEGGPSSGAPPPS-NH2; N-terminus assumed)
- mGIPR CRE Luc EC50 (pM) (mouse GIP receptor [1]): similar
- mGLP-1R CRE Luc EC50 (pM) (mouse GLP-1 receptor [2]): similar
- mGcgR CRE Luc EC50 (pM) (mouse Gcg receptor [3]): reduced

Molecule: CC[C@H](C)[C@H](NC(=O)[C@H](CO)NC(=O)[C@H](Cc1ccc(O)cc1)NC(=O)[C@H](CC(=O)O)NC(=O)[C@H](CO)NC(=O)[C@@H](NC(=O)[C@H](Cc1ccccc1)NC(=O)[C@@H](NC(=O)CNC(=O)[C@H](CCC(=O)O)NC(=O)[C@H](C)NC(=O)[C@@H](N)Cc1ccc(O)cc1)[C@@H](C)O)[C@@H](C)CC)C(=O)N[C@@H](C)C(=O)N[C@@H](CCSC)C(=O)N[C@@H](CC(=O)O)C(=O)N[C@@H](CCCCN)C(=O)N[C@H](C(=O)N[C@@H](Cc1c[nH]cn1)C(=O)N[C@@H](CCC(N)=O)C(=O)N[C@@H](CCC(N)=O)C(=O)N[C@@H](CC(=O)O)C(=O)N[C@@H](Cc1ccccc1)C(=O)N[C@H](C(=O)N[C@@H](CC(N)=O)C(=O)N[C@@H](Cc1c[nH]c2ccccc12)C(=O)N[C@@H](CC(C)C)C(=O)N[C@@H](CC(C)C)C(=O)N[C@@H](C)C(=O)N[C@@H](CCC(N)=O)C(=O)N[C@@H](CCCCN)C(=O)NCC(=O)N[C@@H](CCCCN)C(=O)N[C@@H](CCCCN)C(=O)N[C@@H](CC(N)=O)C(=O)N[C@@H](CC(=O)O)C(=O)N[C@@H](Cc1c[nH]c2ccccc12)C(=O)N[C@@H](CCCCN)C(=O)N[C@@H](Cc1c[nH]cn1)C(=O)N[C@@H](CC(N)=O)C(=O)N[C@H](C(=O)N[C@H](C(=O)N[C@@H](CCC(N)=O)C(=O)O)[C@@H](C)O)[C@@H](C)CC)C(C)C)[C@@H](C)CC [hGIP, Native Human GIP]
- half-life as measured in man [4]: 5 to 7 min

B1: Compound No. 30 (peptide)
peptide: H[Aib]HGTFTSDYSIYLEKKYA[Aib]EFVQWLLEGGPSSGAPPPS-NH2
modifications: not fully specified (residue 16); printed as H-Aib-HGTFTSDYSIYLE-K[(2S)-2-amino-6-[[(2S)-2-amino-6-[[(4S)-4-carboxy-4-(19-carboxynonadecanoylamino)butanoyl]amino]hexanoyl]amino]hexanoyl]-KYA-Aib-EFVQWLLEGGPSSGAPPPS-NH2
- hGcgR CRE Luc EC50 (pM) (human glucagon receptor): 9.3 pM
- hGLP-1R CRE Luc EC50 (pM) [5]: 3.9 pM
- hGIPR CRE Luc EC50 (pM) [6]: 15.6 pM
- mGLP-1R CRE Luc EC50 (pM) (mouse GLP-1 receptor [7]): 2.6 pM
- mGcgR CRE Luc EC50 (pM) (mouse Gcg receptor [8]): 5.7 pM
- mGIPR CRE Luc EC50 (pM) (mouse GIP receptor [9]): 11.2 pM

B2: Compound No. 33 (peptide)
peptide: H[Aib]HGTFTSDYSIYLEKKAA[Aib]EFVQWLLEGGPSSGAPPPS-NH2
modifications: not fully specified (residue 16); printed as H-Aib-HGTFTSDYSIYLE-K[(2S)-2-amino-6-[[(2S)-2-amino-6-[[(4S)-4-carboxy-4-(19-carboxynonadecanoylamino)butanoyl]amino]hexanoyl]amino]hexanoyl]-KAA-Aib-EFVQWLLEGGPSSGAPPPS-NH2
- hGcgR CRE Luc EC50 (pM) (human glucagon receptor): 13.7 pM
- hGLP-1R CRE Luc EC50 (pM) [5]: 3.3 pM
- hGIPR CRE Luc EC50 (pM) [6]: 7.3 pM
- mGLP-1R CRE Luc EC50 (pM) (mouse GLP-1 receptor [7]): 2.2 pM
- mGcgR CRE Luc EC50 (pM) (mouse Gcg receptor [8]): 8.1 pM
- mGIPR CRE Luc EC50 (pM) (mouse GIP receptor [9]): 10 pM

Molecule: H[Aib]HGTFTSDYSIYLEKQAA[Aib]EFVQWLLEGGPSSGAPPPS-NH2 (not fully specified (residue 16)) [Compound No. 21]
- hGcgR CRE Luc EC50 (pM) (human glucagon receptor): 26.6 pM
- hGLP-1R CRE Luc EC50 (pM) [5]: 3 pM
- hGIPR CRE Luc EC50 (pM) [6]: 3.2 pM
- mGLP-1R CRE Luc EC50 (pM) (mouse GLP-1 receptor [7]): 2.9 pM
- mGcgR CRE Luc EC50 (pM) (mouse Gcg receptor [8]): 56.1 pM
- mGIPR CRE Luc EC50 (pM) (mouse GIP receptor [9]): 9.8 pM
